In patent US20260176336A1 (MESTAG THERAPEUTICS, published 2026):

Assays:
[1] = target: Human LTBR (Acro), recombinant protein (human, UniProt P36941 31-227, limits assumed); assay: SPR (Carterra LSA), antibody captured by anti-human Fc, LTBR as analyte
Method: (§1) The binding of anti-LTBR antibodies to human and cynomolgus LTBR was investigated by Surface Plasmon Resonance (SPR) on Carterra LSA. An EC30M chip was used to capture the test antibodies. Activation with EDC and sNHS occurred in MES pH 5.5 to prepare the chip for amine coupling. Goat anti-human IgG Fc antibody was then captured to the chip via incubation for 10 minutes. Excess conjugation sites were quenched with 1M Ethanolamine pH 8. To measure monovalent binding kinetics, antibodies were printed/spotted onto the chip and allowed to bind to the goat antibody, followed by subsequent washing. After the preparation, the printed chip was exposed to repeated rounds of association and dissociation with increasing analyte concentrations. In this work, recombinant proteins (Human LTBR (Acro) or cyno LTBR His (R&D)) were serially diluted across a range starting at 1500 nM with 3-fold dilutions and 10 points. The curves were fitted to global fit in a 1:1 binding model to obtain KD values. The binding affinity to both species is reported.

[2] = target: T1, cyno LTBR His (R&D), recombinant protein (cynomolgus (Macaca fascicularis), UniProt P36941 31-227 (human entry), limits assumed); assay: as above
T1 construct: bought protein used as analyte on Carterra LSA
Method: as §1

[3] = target: T2, human LTBR endogenously expressed on cells (HepG2, A549, A375, HCC1187, RPMI-7951, primary human breast CAFs) (human, UniProt P36941 31-435); assay: cell-based or functional assay
[4] = target: T2, human LTBR endogenously expressed on …; assay: flow cytometry, A375 cells
Method: For binding to LTBR-positive cells, the A375 tumor cell line was used. At the same time, binding to LTBR-negative HEK293 cells was tested to confirm specificity. In short, the cells were resuspended in the FACS binding buffer, and live/dead efluro450 viability dye was added at a 1:1000 dilution to the cell suspension, followed by incubation at room temperature in the dark for 30 minutes. The cells were then diluted to 2 e5/ml, and 100 ul was added to wells of a 96-well U-bottom plate as required. […] The cells were pelleted by centrifugation, and the supernatant was discarded, followed by the addition of a series of dilutions of anti-LTBR antibodies and incubation for 45 minutes at 4 C in the dark. Cells were washed two times with PBS with 3% (w/v) BSA before adding 60 ul of fluorescently labelled secondary antibody (goat anti-human IgG) diluted to 1:200 in PBS. Incubation continued at 4 C for at least 30 minutes, followed by two washes in PBS pH 7.4. Cells were either fixed with 2% PFA (30 minutes at 4 C) followed by washout and storage in 100 ul of PBS or immediately analysed on a Flow Cytometer. The data were analysed using FloJo V10 and GraphPad Prism. No binding to the HEK cell line was detected for any tested clones, confirming the specific interaction between anti-LTBR antibodies and LTBR receptor. The results are summarised in.

[5] = target: mouse LTBR on cells (4T1 tumor cell line; primary mouse lung fibroblasts) (mouse, UniProt P50284 31-415); assay: cell-based or functional assay
[6] = target: T2, human LTBR endogenously expressed on …; assay: cell-based or functional assay; remark: listed apart in the source
[7] = target: T2, human LTBR endogenously expressed on …; assay: cell-based or functional assay; remark: listed apart in the source

T2 sequence (P36941 31-435): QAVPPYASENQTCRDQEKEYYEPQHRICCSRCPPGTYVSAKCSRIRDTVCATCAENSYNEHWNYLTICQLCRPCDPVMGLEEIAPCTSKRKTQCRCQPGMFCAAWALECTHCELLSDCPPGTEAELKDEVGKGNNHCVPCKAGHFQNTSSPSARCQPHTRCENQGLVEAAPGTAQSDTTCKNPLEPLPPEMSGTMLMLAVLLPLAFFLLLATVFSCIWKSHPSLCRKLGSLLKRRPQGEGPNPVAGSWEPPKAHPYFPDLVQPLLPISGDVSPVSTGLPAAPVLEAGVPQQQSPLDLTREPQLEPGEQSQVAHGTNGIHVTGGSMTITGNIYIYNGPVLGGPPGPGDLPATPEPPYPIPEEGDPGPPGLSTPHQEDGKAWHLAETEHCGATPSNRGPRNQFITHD
Human LTBR (Acro), recombinant protein, sequence (P36941 31-227 limits assumed): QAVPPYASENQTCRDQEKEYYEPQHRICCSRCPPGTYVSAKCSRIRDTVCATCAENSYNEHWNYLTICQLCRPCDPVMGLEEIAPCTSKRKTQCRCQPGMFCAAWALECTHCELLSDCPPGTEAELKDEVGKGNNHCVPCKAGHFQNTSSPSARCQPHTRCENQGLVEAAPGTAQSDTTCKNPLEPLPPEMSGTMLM
T1 sequence (P36941 other isoform, or with tags, fused parts or gaps limits assumed): as the sequence (P36941 31-227 limits assumed) above, with A2V, A7G, Q24R, I45S, N163D, K181R, L184S, P186S counted along it
mouse LTBR on cells (4T1 tumor cell line; primary mouse lung fibroblasts), sequence (P50284 31-415): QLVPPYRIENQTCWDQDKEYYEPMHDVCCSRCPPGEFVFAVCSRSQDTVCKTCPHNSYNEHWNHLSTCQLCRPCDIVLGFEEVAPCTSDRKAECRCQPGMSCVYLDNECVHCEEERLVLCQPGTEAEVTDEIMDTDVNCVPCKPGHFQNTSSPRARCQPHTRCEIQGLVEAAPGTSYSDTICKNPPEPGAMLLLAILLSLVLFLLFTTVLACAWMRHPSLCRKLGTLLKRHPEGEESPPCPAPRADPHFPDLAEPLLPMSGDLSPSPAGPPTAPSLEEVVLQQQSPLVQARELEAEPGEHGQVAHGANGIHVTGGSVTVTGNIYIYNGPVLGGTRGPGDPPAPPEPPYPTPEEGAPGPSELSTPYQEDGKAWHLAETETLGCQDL

| Binder | Kd [1] [pM] | Kd [2] [pM] | HepG2 reporter assay EC50 (w/o cross-linking antibody) [3] [pM] | HepG2 reporter assay EC50 (with cross-linking antibody) [3] [pM] | EC50 [4] [pM] | 4T1 monoculture CCL5 read-out EC50 [5] [pM] | 4T1 monoculture CCL5 read-out EC50, 4.15 + cross-linking antibody [5] [pM] | CCL19 upregulation, HCC1187:CAF Co-culture EC50 [6] [pM] | HepG2 Reporter assay, HepG2:FAP-CHO-K1 Co-culture EC50 [7] [pM] |
| --- | --- | --- | --- | --- | --- | --- | --- | --- | --- |
| Clone 2.3 (antibody, V domains shown, anti-LTBR mAb (bivalent)) VH: EVQLVESGGGLVQPGGSLRLSCAASGFTFSSYAMSWVRQAPGKGLEWVSGISGSGGRTNYADSVKGRFTISRDNSKNTLYLQMNSLRAEDTAVYYCAKSDNWHYLDAFDIWGQGTMVTVSS VL: not shown | 580 | 390 | 130 | 43 | 660 |  |  |  |  |
| Clone 2.5 (antibody, V domains shown, anti-LTBR mAb (bivalent)) VH: EVQLVESGGGLVQPGRSLRLSCAASGFTFDDYDIHWVRQAPGKGLEWVSGINWNSITIGYADSVKGRFTISRDNAKNSLYLQMNSLRAEDTALYYCAKDRGSGWRIFDYWGQGTLVTVSS VL: not shown | 2100 | 1600 | 240 | 140 | 5400 |  |  |  |  |
| Clone 2.8 (antibody, V domains shown, anti-LTBR mAb (bivalent)) VH: QVQLQESGPGLVKPSGTLSLTCAVSGGSISSSNWWSWVRQPPGKGLEWIGDIYHDGTTYYNPSLKSRVTVSVDKSKNQFSLKLSSVTAADTAVYYCARSPSGTTDYFDYWGQGTLVTVSS VL: DIQMTQSPSSLSASVGDRVNITCRASQSISSYLNWYQQKPGKAPKLLIYAPSSLQSGVPSRFSGGGSGTDFTLTISSLQPEDFATYFCQQSYSTPPTFGPGTKVDIK | 280 | 2600 |  |  |  |  |  |  |  |
| Clone 4.15 (antibody, V domains shown) VH: QVQLKESGPGLVQPSQTLSLTCTVSGFSLTTYSVHWVRQHSGKSLEWMGRMWTDGDTSYNSAFTSRLSISRDTSKSQVFLKMNSLQTEDTGTYYCARGYWYFDFWGPGTMVTVSS VL: DVQMTQSPSYLAASPGESVSIRCKASKSISNNLAWYQEKPGKANKLLIHSGSTLQSGTPSRFSGSGSGTDFTLTIRSLEFEDFAVYYCQQYNEYPYTFGAGTKLELK |  |  |  |  |  | 840 | 36 |  |  |
| Clone 2.2 (antibody, V domains shown, anti-LTBR mAb (bivalent)) VH: EVQLVESGGGLVKPGGSLRLSCAASRFTFSSYSMNWVRQAPGKGLEWVSSISPSSSYIYYADSVKGRFTISRDNAKNSLYLQMNSLRAEDTAVYYCARDHYNWNFDALDIWGQGTMVTVSS VL: not shown | 560 | 710 | 17000 | 190 | 720 |  |  |  |  |
| Clone 4.10 (bispecific antibody, human IgG1, kappa, L234A L235A) heavy 1: not shown heavy 2: EVQLVESGGGLVKPGGSLRLSCVASGFTFSLAWMNWVRQAPGKGLEWVGHIKSRADGGSTDYAAPVKGRFTISRDDSKNTLYLHMNSLKTEDTAVYFCSRFYWNYVLDYWGQGTLVTVSSASTKGPSVFPLAPSSKSTSGGTAALGCLVKDYFPEPVTVSWNSGALTSGVHTFPAVLQSSGLYSLSSVVTVPSSSLGTQTYICNVNHKPSNTKVDKKVEPKSCDKTHTCPPCPAPEAAGGPSVFLFPPKPKDTLMISRTPEVTCVVVDVSHEDPEVKFNWYVDGVEVHNAKTKPREEQYNSTYRVVSVLTVLHQDWLNGKEYKCKVSNKALPAPIEKTISKAKGQPREPQVCTLPPSRDELTKNQVSLSCAVKGFYPSDIAVEWESNGQPENNYKTTPPVLDSDGSFFLVSKLTVDKSRWQQGNVFSCSVMHEALHNHYTQKSLSLSPGK light: DIQMTQSPSSLSASVGDRVTITCRASQSINSYFNWYQQKPGKAPKLLIYAASGLQSGVPSRFSGSGSGTDFTLTISSLQPEDFATYYCQQSYSPPYTFGQGTNLEIKRTVAAPSVFIFPPSDEQLKSGTASVVCLLNNFYPREAKVQWKVDNALQSGNSQESVTEQDSKDSTYSLSSTLTLSKADYEKHKVYACEVTHQGLSSPVTKSFNRGEC |  |  |  |  |  |  |  | 410 | 36 |
| Clone 2.4 (antibody, V domains shown, anti-LTBR mAb (bivalent)) VH: QVQLVESGGGVVQPGRSLRLSCAASGFTFSSYGIHWVRQAPGKGLEWVAVIWYDGSNKYYADSVKGRFTISRDNSKNTLYLQMNSLRAEDTAVYYCARDGGTGNYYYMDVWGKGTTVTVSS VL: not shown | 36000 | 53000 |  | 90 |  |  |  |  |  |
| Clone 2.7 (antibody, V domains shown, anti-LTBR mAb (bivalent)) VH: EVQLVESGGGLVQPGGSLRLSCAASGFIFDDYDMHWVRQAPGKGLEWVSGINWNSNRVDYADSVKGRFTISRDNARNSLYLQMNSLRPEDTAFYYCVKDKTSSWYVFDSWGQGTPVTVSS VL: not shown | 4300 | 1300 | 170 | 180 | 9500 |  |  |  |  |
| Clone 2.6 (antibody, V domains shown, anti-LTBR mAb (bivalent)) VH: QVQLVQSGTEMKKPGASVKVSCKASGYTFSSYDISWVRQAPGQGLEWMGWFSAYNGNSNYAQKFQGRVTMTTDTSTNTAYMELRSLRSDDTAVYYCAREGYYGNSGFFDYWGQGTLVTVSS VL: not shown | 180 | 24 | 73 | 100 | 3500 |  |  |  |  |
| Clone 2.1 (antibody, V domains shown, anti-LTBR mAb (bivalent)) VH: EVQLVESGGGLVKPGGSLRLSCAASGFTFSSYCMNWVRQAPGKGLEWVSSISTGNTYIYYSDSVKGRFTISRDNAKNSLYLQMNSLRAEDTAVYYCARARYNWNYDAFDIWGQGTMVTVSS VL: DIQMTQSPSSLSASIGDRVTITCQASQDISNFLSWYQQKPGKAPNLLIFDASNLETGVPSRFSESGSGTDFSFTITSLQPEDIATYYCQQYYNVPLTFGGGTKVEIK | 250 | 260 |  | 160 | 1000 |  |  |  |  |
